B1: ∆40NCAS (CAS lacking the first 40 amino acids of the N-terminus) (domain or fragment)
chain: NYPLLLLTLLEKSQDNVIKVCASVTFKNYIKRNWRIVEDEPNKICEADRVAIKANIVHLMLSSPEQIQKQLSDAISIIGREDFPQKWPDLLTEMVNRFQSGDFHVINGVLRTAHSLFKRYRHEFKSNELWTEIKLVLDAFALPLTNLFKATIELCSTHANDASALRILFSSLILISKLFYSLNFQDLPEFFEDNMETWMNNFHTLLTLDNKLLQTDDEEEAGLLELLKSQICDNAALYAQKYDEEFQRYLPRFVTAIWNLLVTTGQEVKYDLLVSNAIQFLASVCERPHYKNLFEDQNTLTSICEKVIVPNMEFRAADEEAFEDNSEEYIRRDLEGSDIDTRRRAACDLVRGLCKFFEGPVTGIFSGYVNSMLQEYAKNPSVNWKHKDAAIYLVTSLASKAQTQKHGITQANELVNLTEFFVNHILPDLKSANVNEFPVLKADGIKYIMIFRNQVPKEHLLVSIPLLINHLQAESIVVHTYAAHALERLFTMRGPNNATLFTAAEIAPFVEILLTNLFKALTLPGSSENEYIMKAIMRSFSLLQEAIIPYIPTLITQLTQKLLAVSKNPSKPHFNHYMFEAICLSIRITCKANPAAVVNFEEALFLVFTEILQNDVQEFIPYVFQVMSLLLETHKNDIPSSYMALFPHLLQPVLWERTGNIPALVRLLQAFLERGSNTIASAAADKIPGLLGVFQKLIASKANDHQGFYLLNSIIEHMPPESVDQYRKQIFILLFQRLQNSKTTKFIKSFLVFINLYCIKYGALALQEIFDGIQPKMFGMVLEKIIIPEIQKVSGNVEKKICAVGITKLLTECPPMMDTEYTKLWTPLLQSLIGLFELPEDDTIPDEEHFIDIEDTPGYQTAFSQLAFAGKKEHDPVGQMVNNPKIHLAQSLHKLSTACPGRVPSMVSTSLNAEALQYLQGYLQAASVTLL
B2: cellular apoptosis susceptibility protein (CAS), human wild type (natural protein)
chain: MELSDANLQTLTEYLKKTLDPDPAIRRPAEKFLESVEGNQNYPLLLLTLLEKSQDNVIKVCASVTFKNYIKRNWRIVEDEPNKICEADRVAIKANIVHLMLSSPEQIQKQLSDAISIIGREDFPQKWPDLLTEMVNRFQSGDFHVINGVLRTAHSLFKRYRHEFKSNELWTEIKLVLDAFALPLTNLFKATIELCSTHANDASALRILFSSLILISKLFYSLNFQDLPEFFEDNMETWMNNFHTLLTLDNKLLQTDDEEEAGLLELLKSQICDNAALYAQKYDEEFQRYLPRFVTAIWNLLVTTGQEVKYDLLVSNAIQFLASVCERPHYKNLFEDQNTLTSICEKVIVPNMEFRAADEEAFEDNSEEYIRRDLEGSDIDTRRRAACDLVRGLCKFFEGPVTGIFSGYVNSMLQEYAKNPSVNWKHKDAAIYLVTSLASKAQTQKHGITQANELVNLTEFFVNHILPDLKSANVNEFPVLKADGIKYIMIFRNQVPKEHLLVSIPLLINHLQAESIVVHTYAAHALERLFTMRGPNNATLFTAAEIAPFVEILLTNLFKALTLPGSSENEYIMKAIMRSFSLLQEAIIPYIPTLITQLTQKLLAVSKNPSKPHFNHYMFEAICLSIRITCKANPAAVVNFEEALFLVFTEILQNDVQEFIPYVFQVMSLLLETHKNDIPSSYMALFPHLLQPVLWERTGNIPALVRLLQAFLERGSNTIASAAADKIPGLLGVFQKLIASKANDHQGFYLLNSIIEHMPPESVDQYRKQIFILLFQRLQNSKTTKFIKSFLVFINLYCIKYGALALQEIFDGIQPKMFGMVLEKIIIPEIQKVSGNVEKKICAVGITKLLTECPPMMDTEYTKLWTPLLQSLIGLFELPEDDTIPDEEHFIDIEDTPGYQTAFSQLAFAGKKEHDPVGQMVNNPKIHLAQSLHKLSTACPGRVPSMVSTSLNAEALQYLQGYLQAASVTLL

Columns and labels:
[1] = biological target: karyopherinα (Kapα; importinα1; KPNA2), full-length human (human, UniProt P52292 1-529); experiment: MST
[2] = biological target: RanGTP (wild-type Ran loaded with GTP) (UniProt P62826 1-216); experiment: MST

| binding result [1] | Kd [2] | Kd [1] | Binder |
| --- | --- | --- | --- |
| binds | – | – | B1 |
| – | 1400 ± 400 nM | 9.3 ± 2.9 nM | B2 |
